Test results: US20170059576

Test system: Immunoglobulin E (IgE), P01854-1
Details: 5'-hexylamine coupled Sulfo-SBED (phenyl azide, biotin); 365 nm photo-crosslinking, Western blot; marginal at highest protein concentration only

Immunoglobulin E (IgE), P01854-1, sequence (P01854 other isoform, or with tags, fused parts or gaps): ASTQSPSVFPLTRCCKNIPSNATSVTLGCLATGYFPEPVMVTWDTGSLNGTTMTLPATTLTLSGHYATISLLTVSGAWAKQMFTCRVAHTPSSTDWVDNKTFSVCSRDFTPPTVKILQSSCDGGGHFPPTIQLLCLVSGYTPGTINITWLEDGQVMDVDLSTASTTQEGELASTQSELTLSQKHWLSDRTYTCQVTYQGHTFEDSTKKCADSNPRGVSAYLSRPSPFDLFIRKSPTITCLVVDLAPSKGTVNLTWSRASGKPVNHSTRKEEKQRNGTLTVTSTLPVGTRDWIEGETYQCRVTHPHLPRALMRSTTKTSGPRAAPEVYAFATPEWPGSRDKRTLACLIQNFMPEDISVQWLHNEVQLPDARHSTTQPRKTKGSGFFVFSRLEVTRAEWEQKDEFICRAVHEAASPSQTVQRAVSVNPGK

In the case of “CCAGCTGGCTCACCGTTCGCGCTAGGGCTTTCCGTCG [ABAL-D17.4sc]”, the binding signal (fold lower cross-linking than ABAL-D17.4) is reported as 17.
